{
  "source": "patent US20120237496",
  "proteins": {"B1": {"name": "D1 (protein)", "chain": "YPYDVPDYAYPYDVPDYAYPYDVPDYAGSYDDGICKSSDCIKSAARLIQNMDATTEPCTDFFKYACGGWLKRNVIPETSSRYGNFDILRDELEVVLKDVLQEPKTEDIVAVQKAKALYRSCINESAIDSRGGEPLLKLLPDIYGWPVATENWEQKYGASWTAEKAIAQLNSKYGKKVLINLFVGTDDKNSVNHVIHIDQPRLGLPSRDYYECTGIYKEACTAYVDFMISVARLIRQEERLPIDENQLALEMNKVMELEKEIANATSKPEDRNDPMLLYNKMTLAQIQNNFSLEINGKPFSWLNFTNEIMSTVNISITNEEDVVVYAPEYLTKLKPILTKYSARDLQNLMSWRFIMDLVSSLSRTYKESRNAFRKALYVTTSETATWRRCANYVNGNMMNAVGRLYVEAAFAGESKHVVEDLIAQIREVFIQTLDDLTWMDAETKKRAEEKALAIKERIGYPDDIVSNDNKLNNEYLELNYKEDEYFENIIQNLKFSQSKQLKKLREKVDKDEWISGAAVVNAFYSSGRNQIVFPAGILQPPFFSAQQSNSLNYGGIGMVIGHEITHGFFDNGRNPNKDDDLVDWWTQQSASNFKEQSQCMVYQYGNFSWDLAGGQHLNGINTLGENIADNGGLGQAYRAYQNYIKKNGEEKLLPGLDLNHKQLFFLNFAQVWCGTYRPEYAVNSIKTDVHSPKNFRIIGTLQNSAEFSEAFHCRKNSYMNPEKKCRVW"}, "B2": {"name": "D2 (protein)", "chain": "YPYDVPDYAYPYDVPDYAYPYDVPDYAGSYDDGICKSSDCIKSAARLIQNMDATTEPCTDFFKYACGGWLKRNVIPETSSRYGNFDILRDELEVVLKDVLQEPKTEDIVAVQKAKALYRSCINESAIDSRGGEPLLKLLPDIYGWPVATENWEQKYGASWTAEKAIAQLNSKYGKKVLINLFVGTDDKNSVNHVIHIDQPRLGLPSRDYYECTGIYKEACTAYVDFMISVARLIRQEERLPIDENQLALEMNKVMELEKEIANATAKPEDRNDPMLLYNKMTLAQIQNNFSLEINGKPFSWLNFTNEIMSTVNISITNEEDVVVYAPEYLTKLKPILTKYSARDLQNLMSWRFIMGLVSSLSRTYKESRNAFRKALYVTTSETATWRRCANYVNGNMMNAVGRLYVEAAFAGESKHVVEDLIAQIREVFIQTLDDLTWMDAETKKRAEEKALAIKERIGYPDDIVSNDNKLNNEYLELNYKEDEYFENIIQNLKFSQSKQLKKLREKVDKDEWISGAAVVNAFYSSGRNQIVFPAGILQPPFFSAQQSNSLNYGGIGMVIGHEITHGFFDNGRNPNKDDDLVDWWTQQSASNFKEQSQCMVYQYGNFSWDLAGGQHLNGINTLGENIADNGGLGQAYRAYQNYIKKNGEEKLLPGLDLNHKQLFFLNFAQVWCGTYRPEYAVNSIKTDVHSPKNFRIIGTLQNSAEFSEAFHCRKNSYMNPEKKCRVW"}, "B3": {"name": "D3 (protein)", "chain": "YPYDVPDYAYPYDVPDYAYPYDVPDYAGSYDDGICKSSDCIKSAARLIQNMDATTEPCTDFFKYACGGWLKRNVIPETSSRYGNFDILRDELEVVLKDVLQEPKTEDIVAVQKAKALYRSCINESAIDSRGGEPLLKLLPDIYGWPVATENWEQKYGASWTAEKAIAQLNSKYGKKVLINLFVGTDDKNSVNHVIHIDQPRLGLPSRDYYECTGIYKEACTAYVDFMISVARLIRQEERLPIDENQLALEMNKVMELEKEIANATAKPEDRNDPMLLYNKMTLAQIQNNFSLEINGKPFSWLNFTNEIMSTVNISITNEEDVVVYAPEYLTKLKPILTKYSARDLQNLMSWRFIMDLVSSLSRTYKESRNAFRKALYVTTSETATWRRCANYVNGNMMNAVGRLYVEAAFAGESKHVVEDLIAQIREVFIQTLDDLTWMDAETKKRAEEKALAIKERIGYPDDIVSNDNKLNNEYLELNYKEDEYFENIIQNLKFSQSKQLKKLREKVDKDEWISGAAVVNAFYSSGRNQIVFPAGILQPPFFSAQQSNSLNYGGIGMVIGHEITHGFFDNGRNPNKDDDLVDWWTQQSASNFKEQSQCMVYQYGNFSWDLAGGQHLNGINTLQENIADNGGLGQAYRAYQNYIKKNGEEKLLPGLDLNHKQLFFLNFAQVWCGTYRPEYAVNSIKTDVHSPKNFRIIGTLQNSAEFSEAFHCRKNSYMNPEKKCRVW"}, "B4": {"name": "D4 (protein)", "chain": "YPYDVPDYAYPYDVPDYAYPYDVPDYAGSYDDGICKSSDCIKSAARLIQNMDATTEPCTDFFKYACGGWLKRNVIPETSSRYGNFDILRDELEVVLKDVLQEPKTEDIVAVQKAKALYRSCINESAIDSRGGEPLLKLLPDIYGWPVATENWEQKYGASWTAEKAIAQLNSKYGKKVLINLFVGTDDKNSVNHVIHIDQPRLGLPSRDYYECTGIYKEACTAYVDFMISVARLIRQEERLPIDENQLALEMNKVMELEKEIANATSKPEDRNDPMLLYNKMTLAQIQNNFSLEINGKPFSWLNFTNEIMSTVNISITNEEDVVVYAPEYLTKLKPILTKYSARDLQNLMSWRFIMGLVSSLSRTYKESRNAFRKALYVTTSETATWRRCANYVNGNMMNAVGRLYVEAAFAGESKHVVEDLIAQIREVFIQTLDDLTWMDAETKKRAEEKALAIKERIGYPDDIVSNDNKLNNEYLELNYKEDEYFENIIQNLKFSQSKQLKKLREKVDKDEWISGAAVVNAFYSSGRNQIVFPAGILQPPFFSAQQSNSLNYGGIGMVIGHEITHGFFDNGRNPNKDDDLVDWWTQQSASNFKEQSQCMVYQYGNFSWDLAGGQHLNGINTLGENIADNGGLGQAYRAYQNYIKKNGEEKLLPGLDLNHKQLFFLNFAQVWCGTYRPEYAVNSIKTDVHSPKNFRIIGTLQNSAEFSEAFHCRKNSYMNPEKKCRVW"}, "B5": {"name": "D5 (protein)", "chain": "YPYDVPDYAYPYDVPDYAYPYDVPDYAGSYDDGICKSSDCIKSAARLIQNMDATTEPCTDFFKYACGGWLKRNVIPETSSRYGNFDILRDELEVVLKDVLQEPKTEDIVAVQKAKALYRSCINESAIDSRGGEPLLKLLPDIYGWPVATENWEQKYGASWTAEKAIAQLNSKYGKKVLINLFVGTDDKNSVNHVIHIDQPRLGLPSRDYYECTGIYKEACTAYVDFMISVARLIRQEERLPIDENQLALEMNKVMELEKEIANATSKPEDRNDPMLLYNKMTLAQIQNNFSLEINGKPFSWLNFTNEIMSTVNISITNEEDVVVYAPEYLTKLKPILTKYSARDLQNLMSWRFIMGLVSSLSRTYKESRNAFRKALYVTTSETATWRRCANYVNGNMMNAVGRLYVEAAFAGESKHVVEDLIAQIREVFIQTLDDLTWMDAETKKRAEEKALAIKERIGYPDDIVSNDNKLNNEYLELNYKEDEYFENIIQNLKFSQSKQLKKLREKVDKDEWISGAAVVNAFYSSGRNQIVFPAGILQPPFFSAQQSNSLNYGGIGMVIGHEITHGFFDNGRNPNKDDDLVDWWTQQSASNFKEQSQCMVYQYGNFSWDLAGGQHLNGINTLQENIADNGGLGQAYRAYQNYIKKNGEEKLLPGLDLNHKQLFFLNFAQVWCGTYRPEYAVNSIKTDVHSPKNFRIIGTLQNSAEFSEAFHCRKNSYMNPEKKCRVW"}},
  "key": {"Peptide-5": {"target": "T1, Peptide-5 (not fully specified)", "T1 chain": "CDRVYIHPFHLK"}, "Peptide-6a": {"target": "T2, Peptide-6a", "T2 chain": "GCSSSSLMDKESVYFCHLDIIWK"}},
  "data": [
    {"protein": "B1", "values": [
      {"measurement": "activity relative to G399V/G714K (B1)", "setting": "Peptide-5", "result": 0.08, "unit": "fold"},
      {"measurement": "activity relative to G399V/G714K (B1)", "setting": "Peptide-1", "result": 1.11, "unit": "fold"},
      {"measurement": "activity relative to G399V/G714K (B1)", "setting": "Peptide-4", "result": 0.95, "unit": "fold"},
      {"measurement": "activity relative to G399V/G714K (B1)", "setting": "Peptide-2", "result": 1.24, "unit": "fold"},
      {"measurement": "activity relative to G399V/G714K (B1)", "setting": "Peptide-7", "result": 0.61, "unit": "fold"},
      {"measurement": "activity relative to G399V/G714K (B1)", "setting": "Peptide-6a", "result": 0.12, "unit": "fold"}
    ]},
    {"protein": "B2", "values": [
      {"measurement": "activity relative to G399V/G714K (B1)", "setting": "Peptide-5", "result": 0.08, "unit": "fold"},
      {"measurement": "activity relative to G399V/G714K (B1)", "setting": "Peptide-1", "result": 0.83, "unit": "fold"},
      {"measurement": "activity relative to G399V/G714K (B1)", "setting": "Peptide-4", "result": 0.9, "unit": "fold"},
      {"measurement": "activity relative to G399V/G714K (B1)", "setting": "Peptide-2", "result": 1.06, "unit": "fold"},
      {"measurement": "activity relative to G399V/G714K (B1)", "setting": "Peptide-7", "result": 0.4, "unit": "fold"},
      {"measurement": "activity relative to G399V/G714K (B1)", "setting": "Peptide-6a", "result": 0.08, "unit": "fold"}
    ]},
    {"protein": "B3", "values": [
      {"measurement": "activity relative to G399V/G714K (B1)", "setting": "Peptide-5", "result": 0.1, "unit": "fold"},
      {"measurement": "activity relative to G399V/G714K (B1)", "setting": "Peptide-1", "result": 3.11, "unit": "fold"},
      {"measurement": "activity relative to G399V/G714K (B1)", "setting": "Peptide-4", "result": 1.04, "unit": "fold"},
      {"measurement": "activity relative to G399V/G714K (B1)", "setting": "Peptide-2", "result": 3.42, "unit": "fold"},
      {"measurement": "activity relative to G399V/G714K (B1)", "setting": "Peptide-7", "result": 0.95, "unit": "fold"},
      {"measurement": "activity relative to G399V/G714K (B1)", "setting": "Peptide-6a", "result": 0.47, "unit": "fold"}
    ]},
    {"protein": "B4", "values": [
      {"measurement": "activity relative to G399V/G714K (B1)", "setting": "Peptide-5", "result": 0.08, "unit": "fold"},
      {"measurement": "activity relative to G399V/G714K (B1)", "setting": "Peptide-1", "result": 2.43, "unit": "fold"},
      {"measurement": "activity relative to G399V/G714K (B1)", "setting": "Peptide-4", "result": 0.91, "unit": "fold"},
      {"measurement": "activity relative to G399V/G714K (B1)", "setting": "Peptide-2", "result": 2.71, "unit": "fold"},
      {"measurement": "activity relative to G399V/G714K (B1)", "setting": "Peptide-7", "result": 0.51, "unit": "fold"},
      {"measurement": "activity relative to G399V/G714K (B1)", "setting": "Peptide-6a", "result": 0.28, "unit": "fold"}
    ]},
    {"protein": "B5", "values": [
      {"measurement": "activity relative to G399V/G714K (B1)", "setting": "Peptide-5", "result": 0.08, "unit": "fold"},
      {"measurement": "activity relative to G399V/G714K (B1)", "setting": "Peptide-1", "result": 2.94, "unit": "fold"},
      {"measurement": "activity relative to G399V/G714K (B1)", "setting": "Peptide-4", "result": 0.9, "unit": "fold"},
      {"measurement": "activity relative to G399V/G714K (B1)", "setting": "Peptide-2", "result": 3.37, "unit": "fold"},
      {"measurement": "activity relative to G399V/G714K (B1)", "setting": "Peptide-7", "result": 0.9, "unit": "fold"},
      {"measurement": "activity relative to G399V/G714K (B1)", "setting": "Peptide-6a", "result": 0.35, "unit": "fold"}
    ]}
  ]
}
